From the nanobody polyreactivity screen of Harvey et al. (2022)

Experiment: yeast display, Sf9 membrane polyspecificity reagent, FACS + sequencing; frameworks hold sequencing errors
Outline: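 Using colony PCR, genes from sorted yeast display clones were amplified, then sequenced on MiSeq at 2 × 250 and filtered by CDR length. The clones had been stained with 10% biotinylated, detergent-solubilized Sf9 membrane reagent for 1 hour at 4 °C and sorted by FACS into low and high (top ~1%) gates on anti-HA and streptavidin fluorescence. Polyreactivity labels come from the gate of origin.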

Sequence	polyreactivity (PSR sort gate)
QVQLVESGGGLVQAGGSLRLSCAASGSIFSYYVMGWYRQAPGKERELVARINWSSTSTYYADSVKGRFTISRDNAKNTVYLQMHSLKPEDTAVYYCAAAKRYGRYYEYDYWGQGTQVTVSS	high polyreactivity
QVQLVESGGGLVQAGGSLRLSCAASGSIFTDNAMGWYKQAPGKERELVAVISSGGRTYYADSVKGRFTISRDNAKNTVYLQMNSLKPEDTAVYYCKGQKRYPFSGIEDYWGQGTQVNVSS	high polyreactivity
QVQLVESGGGLVQAGGSLRLSCAASGSIFTDNAMGWYRQAPGKERELVAAITSNGGSTYYADSVKGRFTISRDNAKNTVYLQMNSLKPEDTAVYYCAADSLYREDDYWGQGTQVTVSS	low polyreactivity
QVQLVESGGGLVQAGGSLRLSCAASGSIFTFYAMGWYRQAPGKERELVATINRIGGNTYYADSVKGRFTISRDNAKNTVYLQMNSLKPEDTAVYYCAKLYGSANGYDYWGQGTQVSVSS	low polyreactivity
QVQLVESGGGLVQAGGSLRLSCAASGSIFTFYAMGWYRQAPGKERELVATITWLGGSTYADAVKGRFTISRDNAKNTVYLQMNSLKPEDTAVYYCNADYRSYWYKLDYWGQGTQVTVSS	high polyreactivity
QVQLVESGGGLVQAGGSLRLSCAASGSIFTGYAMGWYRQAPGKERELVAAIRTRGGSTYYADSVKGRFTISRDNAKNTVYLQMNSLKPEDTAVYYCAKRYYGWYGNFDYWGQGTLVTVSS	high polyreactivity
QVQLVESGGGLVQAGGSLRLSCAASGSIFTGYAMGWYRQARGKESELVAAIDDSGDSTYYADSVKVRFTISRDNATNTVYLQMNSLKPEDTAVYYSKAEYRVNKEYDYWGQGTQVTVSS	low polyreactivity
QVQLVESGGGLVQAGGSLRLSCAASGSIFTGYTMGRYRQATGKERELVAAITWNGGSTYYADSVKGRFTISRDNAKNTVYLQMNSLKPEDTAVYYCAAVPYTPSPYTYGYWGQGTQVTVSS	high polyreactivity
QVQLVESGGGLVQAGGSLRLSCAASGSIFTHNAMGWSRQAPGKERELVATISYGGGRTYYADSVKGRFTISRDNAKNTVYLQMNSLKPEDTAVYYCNALRGGPFRWHGYYYWGQGTQVTVSS	low polyreactivity
QVQLVESGGGLVQAGGSLRLSCAASGSIFTHNAMGWYRQAHGKERELVAAISSGGSTNYADSVKGRFTISRDNAKNTVYLQMNSLKPEDTAVYYCAKSIDGWYWRRRRYDYWGQGTQVTVSS	low polyreactivity
QVQLVESGGGLVQAGGSLRLSCAASGSIFTHNAMGWYRQAPGKERELVATISYGGGRTYYADSVKGRFTISRDNAKNTVYLQMNSLKPEDTAVYYCAADVYWYAYVWRKYGYWGQGTQVTVSS	low polyreactivity
QVQLVESGGGLVQAGGSLRLSCAASGSIFTHYAMGWYRQAPGKERELVAAISRRGGSTYYADSVKGRFTISRDNAKNTVYLQMNSLKPEDTAVYYCAVRLYLEMDYWGQGTQVTVSS	high polyreactivity
QVQLVESGGGLVQAGGSLRLSCAASGSIFTHYAMGWYRQAPGKERELVAAITWSGGSTYYADSVKGRFTISRDNAKYTVYLQMNSLKPEDTAVYYCNVAWVGVSLVYGPFEYDYWGQGTQVTVSS	high polyreactivity
QVQLVESGGGLVQAGGSLRLSCAASGSIFTIYAMGWYRQAPGKERELVAAINRGDGTNYADSVKGRFTISRDNAKNTVYLQMNSLKPEDTAVYYCAAKAYTNYDRQVNLRRYYWGQGTQVTVSS	high polyreactivity
QVQLVESGGGLVQAGGSLRLSCAASGSIFTKYAMGWYRQAPGKERELVAAISKTGGSTYYADSVKGRFTISRDTAKNTVYLQMNSLKPEDTAVYYCNAAGGYSVYKRGRDYWGQGTQVTGSS	high polyreactivity
QVQLVESGGGLVQAGGSLRLSCAASGSIFTKYVMGWYRQAPGKERELVAAITYRGGSTYYADSVKGRFTISRDNAKNTVYLQMNSLKPEDTAVYDCAAEYYRYKYTAYRTDDYWGQGTQVTVSS	high polyreactivity
QVQLVESGGGLVQAGGSLRLSCAASGSIFTLYAIGWSRQAPGKERELVAAISRRGGSTYYADSVKGRFTISRDNAKNTVYLQMNSLKPEDTAVYYCNAYRSNYLIGSSSYGLDYWGHGTQVTVSS	high polyreactivity
QVQLVESGGGLVQAGGSLRLSCAASGSIFTLYAMGWYRQAPGKERELVAAIDSGGNTNYADSVKGRFTISRDNAKNTVYLQMNSLKPEDTAVYYCAKRHATEFDYWGQGTQVTVSS	low polyreactivity
QVQLVESGGGLVQAGGSLRLSCAASGSIFTLYAMGWYRQAPGKERELVAAITWTGGSTYYADSVKGRFTISRDNAKNTVYLQMNSLKPEDTAVYYCATDGYWQSNGAFYYVARHGGYWGQGTQVTVSS	low polyreactivity
QVQLVESGGGLVQAGGSLRLSCAASGSIFTLYVMGWYRQAPGKERELVAAITWSGGSTYYADSVKGRFTISRDNAKNTVYLQMNSLKTEDPAVYYCNADVRWDSQDYYYWGQGTQVTVSS	low polyreactivity
QVQLVESGGGLVQAGGSLRLSCAASGSIFTNAMGWYIQAPGKERELVAAISSSGGSTYYADSVKGRFTISRDNANNTVYLQMNSLKPEDTAVYYCSADHFGGRDYWGQGTQVTVSS	low polyreactivity
QVQLVESGGGLVQAGGSLRLSCAASGSIFTNYAMGWYRQAPGKERELVATITYYADSVKGRFTISRDNAKNTVYLQMNSLKPVDTAVYYCAAVRSGPGYDYWGQGTQVTVSS	low polyreactivity

Sequence	polyreactivity (PSR sort gate)
QVQLVESGGGLVQAGGSLRLSCAASGSIFTPNAMGWYRQAPGKERELVAAISQSGGSTYYADSVKGRFTISRDNAMNTVYLQMNSLKPEDTAVYYCGASVRHRGYDYWGQGTQVTVSS	high polyreactivity
QVQLVESGGGLVQAGGSLRLSCAASGSIFTPNAMGWYRQAPGKERELVAAISSSSDRTYYADSVKGRFTLSRDNAKNTVYLQMNSLKPEDTAVYYCAAYAQKRYYWGQGTQVTVSS	high polyreactivity
QVQLVESGGGLVQAGGSLRLSCAASGSIFTPNTMGWYRQAPGKEREFVAAINTSGSTNYADSVKGRFTISRDNAKNTVYLQLNSLKPEDTAVYYCAAGIVVTGYDYWGQGTQVTVSS	low polyreactivity
QVQLVESGGGLVQAGGSLRLSCAASGSIFTPYAMGWYRQAPAKERELVAANTSSGGSTNYPDSVKGRFTISRDKAKSTVYLQMNSLKPEDTAVYYCAADQDLGYPLFDYWGQRTQVTVSS	low polyreactivity
QVQLVESGGGLVQAGGSLRLSCAASGSIFTPYAMGWYRQAPGKERELVAAISRSGGSTYYADSVKGRFTISRDNAKNTVYLQMNSLKPEDTAVYYCAVVVYDIYGYESDYWGQGTQVTVSS	low polyreactivity
QVQLVESGGGLVQAGGSLRLSCAASGSIFTPYAMGWYRQAPGKERELVATISWSGGRTYYADSVKGRFTISRDNAMYTVYLQMYSLKPEDTAVYYCAARGYSSEYDYWGQGTQVTVSS	high polyreactivity
QVQLVESGGGLVQAGGSLRLSCAASGSIFTPYVMGWYRQAPGKERELVAAISKRGTRTYYADSVTGRFTISRDNAKNTVYFQMNSLKPEDTAVYYCNAAVDYGSEHDYWGQGTQVTVSS	high polyreactivity
QVQLVESGGGLVQAGGSLRLSCAASGSIFTQYAMGWYREATGKERELVAAITSGGSTYADSVKGRFTISRDNANNTVYLQMNSLKPEDTAVYYCATQYSYRGVTFYYWGQGTQVTVSS	low polyreactivity
QVQLVESGGGLVQAGGSLRLSCAASGSIFTRNAMGWYRQAPGKERELVAAISRGGGTNYADSVKGRFTISRDNAKNTVYLQMNSLKPEDTAVYYCAARVGYPYPAGYDYWGQGTQVTVSS	high polyreactivity
QVQLVESGGGLVQAGGSLRLSCAASGSIFTRNAMGWYRQAPGKERELVAAISRGGGTNYADSVKGRFTISRDNAKNTVYLQMNSLKPEDTAVYYCAKGWLPNGIPTYFRPYGLDYWGQGTQVTVSS	high polyreactivity
QVQLVESGGGLVQAGGSLRLSCAASGSIFTRYTMGWCRQAPGKERELVAVISDSSGRTYYADTVKGRFTISRDNGKNTDYLQMNSLKPEDPAVYYCAAEYSDIYEYWGQGTQVTVSS	low polyreactivity
QVQLVESGGGLVQAGGSLRLSCAASGSIFTRYTMGWYRQAPGKERELVAVISDSSGRTYYADSVKGRFTISRDNGKNTVYLQMNSLKPEDTAVYYCAAEYSDIYEYWGQGTQVTVSS	low polyreactivity
QVQLVESGGGLVQAGGSLRLSCAASGSIFTSYAMGWSRQAPGKERELVAAITSGGSTNYADSVKGRFTISRDNAKNTVYLQMNSLKPEDTAVYYCNAKWYWYLTRDAYRYRYTYDYWGQGTQVTVSS	low polyreactivity
QVQLVESGGGLVQAGGSLRLSCAASGSIFTSYAMGWYRQAPGKERELVAAITSTGGSTYYADSVKGRFTISRENAKNTVYLQMNSLKPEDTAVYYCNADGGTPYDYWGQGTQVTVSS	low polyreactivity
QVQLVESGGGLVQAGGSLRLSCAASGSIFTTNAMGWYRQAPGKERELVAAISSRGTSTYYADSVKGRFTISRDNAKNTVYLQMNSLKPEDTAVYYCPNPYGYWGQGTQVTVSS	high polyreactivity
QVQLVESGGGLVQAGGSLRLSCAASGSIFTTNAMGWYRQAPGKERELVARIDRAGSTYYADSVKGRFTISRDNAKNTVYLQMNSLKPVDTAVYYCAVEAVLSRPYATKFDYWGQGTQVNVSS	low polyreactivity
QVQLVESGGGLVQAGGSLRLSCAASGSIFTTNAMGWYRQAPGKERELVSAISSRGGSTYYADSVKGRFTISRDNAKNTVYLQMNSLKPEDTAVYYCAARYRWPIPGTQYEYWGQGTQVTVSS	low polyreactivity
QVQLVESGGGLVQAGGSLRLSCAASGSIFTVYAMGWYRQAPGKERELVAAIRRTGSRTYYADSVKGRFTISRDNAKNTVYLQMNSLKPEDTAVYYCAADGWYDRRSVRLNYWGQGTQVTVSS	high polyreactivity
QVQLVESGGGLVQAGGSLRLSCAASGSIFTVYTMGWYRQAPGKERELVAAINSRGGTTYYADSVKGRFTISRDNAKNTVYLQMNSLKPEDTAVYYCAAKQRPKSYGPGHYYWGQGTQVTVSS	high polyreactivity
QVQLVESGGGLVQAGGSLRLSCAASGSIFTWYAMGWYRQAPGKERELVAAISEDGGSTYYADSVKGRFTISRDNAKNTVYLQMNSLKPEDTAVFYCATPVASVTGYDYWGQGTQVTVSS	low polyreactivity
QVQLVESGGGLVQAGGSLRLSCAASGSIFTWYAMGWYRQAPGKERELVAAITRGGSTYADSVKGRFTISRDNAKNTVYLQMNSLKPEDTAVYYCNAVYGVYDFNYWGHGTQVTVSS	low polyreactivity
